According to publication PMC7374170, “TRIB3-EGFR interaction promotes lung cancer progression and defines a therapeutic target” (Nature Communications, 2020):
pIC50, pKi: −log10 of the molar value.

Target: TRIB3 (tribbles pseudokinase 3), purified protein (UniProt Q96RU7)
Assay: FP

Sequence of TRIB3 (tribbles pseudokinase 3), purified protein (Q96RU7 whole entry): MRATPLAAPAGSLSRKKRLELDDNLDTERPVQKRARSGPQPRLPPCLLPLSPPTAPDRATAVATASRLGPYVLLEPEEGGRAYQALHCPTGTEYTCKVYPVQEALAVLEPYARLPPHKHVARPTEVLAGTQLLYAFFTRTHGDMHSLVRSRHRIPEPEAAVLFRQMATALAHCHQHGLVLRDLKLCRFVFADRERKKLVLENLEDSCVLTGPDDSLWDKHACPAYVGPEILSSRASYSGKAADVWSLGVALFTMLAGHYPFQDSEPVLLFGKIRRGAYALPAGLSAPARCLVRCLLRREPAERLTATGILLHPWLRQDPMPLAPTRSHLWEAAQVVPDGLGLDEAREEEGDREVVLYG

pIC50: 7.04
pKi: 7.56
Substance: SAH-JGZ4, stapled JGZ peptide (from UniProt P00533)
